According to patent publication US10441663B2, “Methods for treating cancer” (Bicycle Therapeutics Limited, priority 2016, dated 2019):
*1 amine or outer side, *2 acyl side, *3 side chain or, on linkers, in order; H or OH if unused. Where a SMILES comes first, the peptide text is derived from it. Bridges are numbered along the chain shown (N, C = ends). [ ]: non-standard residue; d: D form. The star is where a group is joined. X1 = COc1cc2cc(c1Cl)N(C)C(=O)C[C@H](OC(=O)[C@H](C)N(C)C(=O)CCSSC(C)CCC(=O)*)[C@]1(C)O[C@H]1[C@H](C)[C@@H]1C[C@@](O)(NC(=O)O1)[C@H](OC)/C=C/C=C(\C)C2; 1Nal = N[C@@H](Cc1cccc2ccccc12)C(=O)O; TBMB = c1c(C[*:1])cc(C[*:3])cc1C[*:2]; Tle = CC(C)(C)[C@H](N)C(=O)O; βAla = NCCC(=O)O; Sar = CNCC(=O)O

Tested on: EBC-1 xenograft
Assay: Efficacy of BT1718 in EBC-1 xenograft model (Example 1)
Assay type: in vivo, Mus Musculus
Settings: for Tumor Size (mm^3): Mean ± SEM
Description: The objective of this study was to evaluate the anti-tumor efficacy of BT1718 in EBC-1 xenograft model in female BALB/c nude mice.
The EBC-1 tumor cells were maintained in vitro as a monolayer culture in EMEM medium supplemented with 10% heat inactivated fetal bovine serum at 37° C. in an atmosphere of 5% CO2 in air. The tumor cells will be routinely subcultured twice weekly by trypsin-EDTA treatment. The cells growing in an exponential growth phase will be harvested and counted for tumor inoculation.
Each mouse was inoculated subcutaneously at the right flank with EBC-1 tumor cells (10×10^6) in 0.2 ml of PBS for tumor development. The animals were randomized and treatment was started when the average tumor volume reaches approximately 165 mm^3 for the efficacy study.
All the procedures related to animal handling, care and the treatment in the study were performed according to the guidelines of the Association for Assessment and Accreditation of Laboratory Animal Care (AAALAC). At the time of routine monitoring, the animals were daily checked for any effects of tumor growth and treatments on normal behavior such as mobility, food and water consumption (by looking only), body weight gain/loss (body weights were measured every day), eye/hair matting and any other abnormal effect as stated in the protocol. Death and observed clinical signs were recorded on the basis of the numbers of animals within each subset.
The major endpoint was to see if the tumor growth could be delayed or mice could be cured. Tumor size was measured three times weekly in two dimensions using a caliper, and the volume was expressed in mm^3 using the formula: V=0.5 a×b^2 where a and b are the long and short diameters of the tumor, respectively. The tumor size was then used for calculations of T/C value. The T/C value (in percent) is an indication of antitumor effectiveness; T and C are the mean volumes of the treated and control groups, respectively, on a given day.
TGI was calculated for each group using the formula: TGI (%)=[1−(Ti−T0)/(Vi−V0)]×100; Ti is the average tumor volume of a treatment group on a given day, T0 is the average tumor volume of the treatment group on the day of treatment start, Vi is the average tumor volume of the vehicle control group on the same day with Ti, and V0 is the average tumor volume of the vehicle group on the day of treatment start.
Summary statistics, including mean and the standard error of the mean (SEM), are provided for the tumor volume of each group at each time point.
Statistical analysis of difference in tumor volume among the groups was conducted on the data obtained at the best therapeutic time point after the final dose.
A one-way ANOVA was performed to compare tumor volume among groups, and when a significant F-statistics (a ratio of treatment variance to the error variance) was obtained, comparisons between groups were carried out with Games-Howell test. All data were analyzed using Prism. P<0.05 was considered to be statistically significant.

SMILES: COc1cc2cc(c1Cl)N(C)C(=O)C[C@H](OC(=O)[C@H](C)N(C)C(=O)CCSSC(C)CCC(=O)NCCC(=O)N(C)CC(=O)N(C)CC(=O)N(C)CC(=O)N(C)CC(=O)N(C)CC(=O)N(C)CC(=O)N(C)CC(=O)N(C)CC(=O)N(C)CC(=O)N(C)CC(=O)N[C@@H](C)C(=O)N[C@H]1CSCc3cc4cc(c3)CSC[C@H](NC(=O)[C@@H](C)NC(=O)[C@H](Cc3cccc5ccccc35)NC(=O)[C@H](CCC(=O)O)NC(=O)[C@H](CC(N)=O)NC(=O)[C@@H](C)NC1=O)C(=O)N[C@@H](CCC(=O)O)C(=O)N[C@@H](CC(=O)O)C(=O)N[C@@H](Cc1ccccc1)C(=O)N[C@@H](Cc1ccc(O)cc1)C(=O)N[C@@H](CC(=O)O)C(=O)N[C@@H](C(C)(C)C)C(=O)N[C@H](C(N)=O)CSC4)[C@]1(C)O[C@H]1[C@H](C)[C@@H]1C[C@@](O)(NC(=O)O1)[C@H](OC)/C=C/C=C(\C)C2 (stereo partly shown) [BT1718] ({X1-βAla}-[Sar][Sar][Sar][Sar][Sar][Sar][Sar][Sar][Sar][Sar]AC[dA]NE[1Nal][dA]CEDFYD[Tle]C-NH2; linker 12-18-25 via TBMB (inferred))
- Body Weight (% Change) (4.3 mpk qd, day 0): 0.0%
- Tumor Volume (4.3 mpk qd, day 0): 165 ± 18 mm^3
- Body Weight (4.3 mpk qd, day 2): 23.9 ± 0.5 g
- Body Weight (% Change) (4.3 mpk qd, day 2): −3.4 ± 1.1%
- Tumor Volume (4.3 mpk qd, day 2): 209 ± 7 mm^3
- Body Weight (4.3 mpk qd, day 4): 23.6 ± 0.8 g
- Body Weight (% Change) (4.3 mpk qd, day 4): −4.6 ± 2.0%
- Tumor Volume (4.3 mpk qd, day 4): 154 ± 10 mm^3
- Body Weight (4.3 mpk qd, day 7): 23.7 ± 0.5 g
- Body Weight (% Change) (4.3 mpk qd, day 7): −4.2 ± 1.3%
- Tumor Volume (4.3 mpk qd, day 7): 81 ± 3 mm^3
- Body Weight (4.3 mpk qd, day 9): 23.5 ± 0.5 g
- Body Weight (% Change) (4.3 mpk qd, day 9): −5.2 ± 1.2%
- Tumor Volume (4.3 mpk qd, day 9): 39 ± 3 mm^3
- Body Weight (4.3 mpk qd, day 11): 24.7 ± 0.7 g
- Body Weight (% Change) (4.3 mpk qd, day 11): −0.4 ± 1.7%
- Tumor Volume (4.3 mpk qd, day 11): 6 ± 3 mm^3
- Body Weight (4.3 mpk qd, day 14): 23.5 ± 0.6 g
- Body Weight (% Change) (4.3 mpk qd, day 14): −5.1 ± 1.9%
- T/C (%) (4.3 mpk qd, day 14): 0%
- TGI (%) (4.3 mpk qd, day 14): 115%
- Tumor Volume (4.3 mpk qd, day 14): 0 ± 0 mm^3
- Tumor Size (mm^3) (4.3 mpk qd, day 14): 0 ± 0 mm^3
- Body Weight (4.5 mpk biw, day 0): 24.0 ± 0.6 g
- Body Weight (% Change) (4.5 mpk biw, day 0): 0.0%
- Tumor Volume (4.5 mpk biw, day 0): 161 ± 21 mm^3
- Body Weight (4.5 mpk biw, day 2): 23.4 ± 0.6 g
- Body Weight (% Change) (4.5 mpk biw, day 2): −2.2 ± 1.0%
- Tumor Volume (4.5 mpk biw, day 2): 239 ± 15 mm^3
- Body Weight (4.5 mpk biw, day 4): 23.7 ± 0.6 g
- Body Weight (% Change) (4.5 mpk biw, day 4): −1.3 ± 0.7%
- Tumor Volume (4.5 mpk biw, day 4): 276 ± 28 mm^3
- Body Weight (4.5 mpk biw, day 7): 24.8 ± 0.7 g
- Body Weight (% Change) (4.5 mpk biw, day 7): 3.3 ± 0.9%
- Tumor Volume (4.5 mpk biw, day 7): 296 ± 29 mm^3
- Body Weight (4.5 mpk biw, day 9): 24.2 ± 0.6 g
- Body Weight (% Change) (4.5 mpk biw, day 9): 1.0 ± 0.7%
- Tumor Volume (4.5 mpk biw, day 9): 285 ± 19 mm^3
- Body Weight (4.5 mpk biw, day 11): 24.5 ± 0.7 g
- Body Weight (% Change) (4.5 mpk biw, day 11): 2.4 ± 1.1%
- Tumor Volume (4.5 mpk biw, day 11): 254 ± 46 mm^3
- Body Weight (4.5 mpk biw, day 14): 25.1 ± 0.6 g
- Body Weight (% Change) (4.5 mpk biw, day 14): 5.0 ± 0.7%
- T/C (%) (4.5 mpk biw, day 14): 23%
- TGI (%) (4.5 mpk biw, day 14): 89%
- Tumor Volume (4.5 mpk biw, day 14): 285 ± 49 mm^3
- Tumor Size (mm^3) (4.5 mpk biw, day 14): 285 ± 49 mm^3
- Body Weight (4.5 mpk biw, day 16): 24.7 ± 0.8 g
- Body Weight (% Change) (4.5 mpk biw, day 16): 3.1 ± 1.5%
- Tumor Volume (4.5 mpk biw, day 16): 331 ± 60 mm^3
- Body Weight (4.5 mpk biw, day 18): 25.2 ± 0.8 g
- Body Weight (% Change) (4.5 mpk biw, day 18): 5.3 ± 1.6%
- Tumor Volume (4.5 mpk biw, day 18): 409 ± 97 mm^3
- Body Weight (4.5 mpk biw, day 21): 25.2 ± 0.7 g
- Body Weight (% Change) (4.5 mpk biw, day 21): 5.2 ± 1.4%
